Consider three molecules from patent US20140134647A1 (LA JOLLA INSTITUTE FOR ALLERGY AND IMMUNOLOGY, published 2014).

Values joined by “and” are separate entries in the source; they are usually repeats but may differ in a detail not shown here. Identical values can stand only once. Like-named read-outs stand apart in the source and are kept apart here.

Test [1] concerns the target TRAIL-R1-Fc (human TRAIL-R1/DR4 ectodomain Fc fusion) (human) (UniProt O00220). The test can be described thus: SPR, kinetic 1:1 fit; TRAIL-R1-Fc immobilized, UL141 analyte.
The target is the same in test [2]. Briefly: SPR, steady-state (KDeq); TRAIL-R1-Fc immobilized, UL141 analyte.
Test [3] has as its target CD155-Fc (CD155/PVR ectodomain Fc fusion) (human) (UniProt P15151). Briefly: SPR; CD155-Fc immobilized, UL141 analyte.
The target in test [4] is TRAIL-R2-Fc double mutant E78A/D109A (human) (UniProt O14763). Briefly: SPR; TRAIL-R2-Fc mutant captured on anti-human Fc chip, UL141 analyte.
Test [5] has as its target TRAIL-R2-Fc mutant R154A (human) (UniProt O14763). The description is as above.
For test [6], the target named is TRAIL-R2-Fc mutant D148A (human) (UniProt O14763). Described as above.
In test [7] the target is TRAIL-R2-Fc mutant K155A (human) (UniProt O14763). Described as above.
In test [8] the target is TRAIL-R2-Fc triple mutant M152A/R154A/K155A (human) (UniProt O14763). The test is described as above.
The target of test [9] is TRAIL-R2-Fc mutant V167A (human) (UniProt O14763). Described as above.
Test [10] addresses TRAIL-R2-Fc mutant F112A (human) (UniProt O14763). Described as above.
Test [11] concerns the target TRAIL-R2-Fc double mutant L110A/L114A (human) (UniProt O14763). Described as above.
Test [12] concerns the target TRAIL-R2-Fc mutant M152A (human) (UniProt O14763). The description is as above.
Test [13] has as its target TRAIL-R2-Fc mutant P150A (human) (UniProt O14763). The description is as above.
The target in test [14] is TRAIL-R2-Fc double mutant L110A/L114A (human) (UniProt O14763). Briefly: SPR, alanine mutant. (Surface plasmon resonance follows binding to a sensor surface in real time, without labels.)
The target in test [15] is TRAIL-R1-Fc (human TRAIL-R1/DR4 ectodomain Fc fusion) (human) (UniProt O00220). Briefly: SPR, average of KDeq and KD (KDave); TRAIL-R1-Fc immobilized, UL141 analyte.
Test [16] concerns the target TRAIL-R2-Fc (human TRAIL-R2 aa 58-184, thrombin site, Fc of human IgG1), wild type (human) (UniProt O14763). Briefly: SPR, kinetic 1:1 fit; TRAIL-R2-Fc immobilized, UL141 analyte.
Test [17] has as its target CD155-Fc (CD155/PVR ectodomain Fc fusion) (human) (UniProt P15151). Briefly: SPR, kinetic 1:1 fit; CD155-Fc immobilized, UL141 analyte.
Test [18] deals with TRAIL-R2-Fc mutant D148A (human) (UniProt O14763).
Test [19] addresses TRAIL-R2-Fc mutant V167A (human) (UniProt O14763).
In test [20] the target is TRAIL-R2-Fc mutant F112A (human) (UniProt O14763).
Test [21] concerns the target TRAIL-R2-Fc double mutant L110A/L114A (human) (UniProt O14763).
The target of test [22] is CD155-Fc (CD155/PVR ectodomain Fc fusion) (human) (UniProt P15151). The test can be described thus: SPR, KDave; CD155-Fc immobilized, UL141 analyte.
Test [23] addresses TRAIL-R2-Fc (human TRAIL-R2 aa 58-184, thrombin site, Fc of human IgG1), wild type (human) (UniProt O14763). The test can be described thus: SPR; TRAIL-R2-Fc immobilized, UL141 analyte.
For test [24] the target is unchanged. The test can be described thus: SPR, KDave; TRAIL-R2-Fc immobilized, UL141 analyte.
The target is the same in test [25]. The test can be described thus: SPR; TRAIL-R2-Fc captured on anti-human Fc chip, UL141 analyte.
The target in test [26] is TRAIL-R1-Fc (human TRAIL-R1/DR4 ectodomain Fc fusion) (human) (UniProt O00220). Briefly: SPR; TRAIL-R1-Fc immobilized, UL141 analyte.
Test [27] deals with CD155-Fc (CD155/PVR ectodomain Fc fusion) (human) (UniProt P15151).
The target is the same in test [28]. Briefly: SPR, KDave; CD155-Fc immobilized, pre-formed UL141-TRAIL-R2 complex analyte.
Test [29] has the same target. The test can be described thus: SPR; CD155-Fc immobilized, pre-formed UL141-TRAIL-R2 complex analyte.
Test [30] deals with T1, TRAIL-R2 (DR5) ectodomain monomer, aa 58-184, without Fc (human, UniProt O14763 58-184).
T1 construct: range 58-184; also called monomeric TRAIL-R2; TRAIL-R2 monomer
The test can be described thus: SPR; UL141-Fc immobilized, TRAIL-R2 analyte.

Test [31] deals with T1, TRAIL-R2 (DR5) ectodomain monomer, aa …. Briefly: SPR, kinetic 1:1 fit; UL141-Fc immobilized, TRAIL-R2 analyte.
Test [32] shares this target. Briefly: SPR, steady-state (KDeq); UL141-Fc immobilized, TRAIL-R2 analyte.
Test [33] concerns the target T2, mouse TRAIL-R2:Fc (extracellular domain of mouse TRAIL-R2 fused to human IgG constant domain) (mouse; human, UniProt Q9QZM4 53-180; P01857 104-330 = IgG part).
T2 construct: extracellular domain;domain: human IgG VH constant domain; also called mTRAIL-R2:Fc
The test can be described thus: ELISA-based assay. On the technique in general: An ELISA detects its analyte on a solid surface through an enzyme-linked reagent.

The target in test [34] is T1, TRAIL-R2 (DR5) ectodomain monomer, aa …. The test can be described thus: SPR, average of KDeq and KD (KDave); UL141-Fc immobilized, TRAIL-R2 analyte.

Chain of TRAIL-R2-Fc mutant K155A (human) (O14763 other isoform, or with tags, fused parts or gaps K155A K155A limits assumed): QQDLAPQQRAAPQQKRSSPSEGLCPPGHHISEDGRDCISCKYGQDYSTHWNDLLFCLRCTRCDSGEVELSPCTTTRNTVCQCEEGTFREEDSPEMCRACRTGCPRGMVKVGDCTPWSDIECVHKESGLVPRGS
Chain of TRAIL-R2-Fc (human TRAIL-R2 aa 58-184, thrombin site, Fc of human IgG1), wild type (human) (O14763 other isoform, or with tags, fused parts or gaps limits assumed): as the sequence (O14763 other isoform, or with tags, fused parts or gaps K155A K155A limits assumed) above, with A98K counted along it
Chain of TRAIL-R2-Fc mutant F112A (human) (O14763 other isoform, or with tags, fused parts or gaps F112A F112A limits assumed): as the sequence (O14763 other isoform, or with tags, fused parts or gaps K155A K155A limits assumed) above, with F55A, A98K counted along it
Chain of TRAIL-R2-Fc double mutant L110A/L114A (human) (O14763 other isoform, or with tags, fused parts or gaps L110A L114A L110A L114A limits assumed): as the sequence (O14763 other isoform, or with tags, fused parts or gaps K155A K155A limits assumed) above, with L53A, L57A, A98K counted along it
Chain of TRAIL-R2-Fc double mutant E78A/D109A (human) (O14763 other isoform, or with tags, fused parts or gaps E78A D109A E78A D109A limits assumed): as the sequence (O14763 other isoform, or with tags, fused parts or gaps K155A K155A limits assumed) above, with E21A, D52A, A98K counted along it
Chain of TRAIL-R2-Fc mutant R154A (human) (O14763 other isoform, or with tags, fused parts or gaps R154A R154A limits assumed): as the sequence (O14763 other isoform, or with tags, fused parts or gaps K155A K155A limits assumed) above, with R97A, A98K counted along it
Chain of TRAIL-R2-Fc mutant D148A (human) (O14763 other isoform, or with tags, fused parts or gaps D148A D148A limits assumed): as the sequence (O14763 other isoform, or with tags, fused parts or gaps K155A K155A limits assumed) above, with D91A, A98K counted along it
Chain of TRAIL-R2-Fc mutant P150A (human) (O14763 other isoform, or with tags, fused parts or gaps P150A P150A limits assumed): as the sequence (O14763 other isoform, or with tags, fused parts or gaps K155A K155A limits assumed) above, with P93A, A98K counted along it
Chain of TRAIL-R2-Fc mutant M152A (human) (O14763 other isoform, or with tags, fused parts or gaps M152A M152A limits assumed): as the sequence (O14763 other isoform, or with tags, fused parts or gaps K155A K155A limits assumed) above, with M95A, A98K counted along it
Chain of CD155-Fc (CD155/PVR ectodomain Fc fusion) (human) (P15151 21-343 limits assumed): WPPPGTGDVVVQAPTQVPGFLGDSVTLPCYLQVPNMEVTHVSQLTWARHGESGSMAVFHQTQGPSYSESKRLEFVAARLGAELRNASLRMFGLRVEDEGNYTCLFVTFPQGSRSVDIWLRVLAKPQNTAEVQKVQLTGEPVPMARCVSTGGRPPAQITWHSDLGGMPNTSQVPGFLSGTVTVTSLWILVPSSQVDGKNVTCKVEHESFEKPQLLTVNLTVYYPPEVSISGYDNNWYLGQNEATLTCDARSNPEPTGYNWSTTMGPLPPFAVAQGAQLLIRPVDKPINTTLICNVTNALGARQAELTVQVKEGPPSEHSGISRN
Chain of TRAIL-R2-Fc triple mutant M152A/R154A/K155A (human) (O14763 other isoform, or with tags, fused parts or gaps M152A R154A K155A M152A R154A K155A limits assumed): as the sequence (O14763 other isoform, or with tags, fused parts or gaps K155A K155A limits assumed) above, with M95A, R97A counted along it
Chain of TRAIL-R2-Fc mutant V167A (human) (O14763 other isoform, or with tags, fused parts or gaps V167A V167A limits assumed): as the sequence (O14763 other isoform, or with tags, fused parts or gaps K155A K155A limits assumed) above, with A98K, V110A counted along it
T1 sequence (O14763 58-184 limits assumed): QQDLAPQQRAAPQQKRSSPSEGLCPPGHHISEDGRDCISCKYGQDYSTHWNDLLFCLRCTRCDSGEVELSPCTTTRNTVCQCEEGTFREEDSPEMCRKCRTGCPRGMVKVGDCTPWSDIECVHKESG
Chain of TRAIL-R1-Fc (human TRAIL-R1/DR4 ectodomain Fc fusion) (human) (O00220 24-239): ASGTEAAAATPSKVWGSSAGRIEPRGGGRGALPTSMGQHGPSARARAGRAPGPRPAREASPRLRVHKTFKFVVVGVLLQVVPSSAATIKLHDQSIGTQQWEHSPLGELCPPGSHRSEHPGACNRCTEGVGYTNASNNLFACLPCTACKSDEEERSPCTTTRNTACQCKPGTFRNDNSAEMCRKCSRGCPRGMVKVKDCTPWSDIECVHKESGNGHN
T2 sequence (Q9QZM4 other isoform, or with tags, fused parts or gaps limits assumed): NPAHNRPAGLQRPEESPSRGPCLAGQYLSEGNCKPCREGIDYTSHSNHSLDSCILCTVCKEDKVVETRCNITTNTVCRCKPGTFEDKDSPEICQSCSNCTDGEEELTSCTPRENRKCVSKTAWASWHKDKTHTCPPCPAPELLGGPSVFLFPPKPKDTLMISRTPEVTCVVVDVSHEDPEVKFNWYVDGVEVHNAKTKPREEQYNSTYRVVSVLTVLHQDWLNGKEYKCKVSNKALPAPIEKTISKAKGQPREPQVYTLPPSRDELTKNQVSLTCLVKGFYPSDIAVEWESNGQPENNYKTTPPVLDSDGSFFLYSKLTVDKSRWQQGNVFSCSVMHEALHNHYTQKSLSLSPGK

By Kd is commonly meant the concentration at which binding is half-saturated. Read a high Kd as lower affinity. Usually koff stands for the rate constant with which the complex falls apart. Low readings indicate a long-lived complex, high ones a short-lived complex. For orientation: kon means the second-order rate constant of association. A high value points to faster complex formation. Take “UL141 ectodomain (HCMV FIX strain) with C-terminal poly-histidine tag (ligand)”: the Kd was 2330 nM in test [1]; 2.27 nM in [2]; 60.4 nM in [4]; 6.26 nM in test [5]; 55.3 nM in test [6]; 7.74 nM in test [7]. Moreover, the Kd in [8] was found to be 7.39 nM; in [9], 15.5 nM; in test [10] it was 630 nM; in test [11] it was 42.7 nM; in [12], 7.49 nM; in [13], 8.32 nM. The Kd in test [15] is 2300 nM; in test [16], 5.96 nM; in [17], 1.97 nM; in test [22], 2 nM; in test [24] it was 6 nM; in test [25], 6 nM and 5.95 nM. Moreover, the koff in test [3] came out at 0.000346 s⁻¹; in test [4], 0.00151 s⁻¹; in [5], 0.000243 s⁻¹; in test [6], 0.0013 s⁻¹; in test [7] it was 0.00038 s⁻¹; in test [8] it was 0.00027 s⁻¹. Further, the off-rate constant (koff) in test [9] was determined as 0.00048 s⁻¹; in test [10] it was 0.00566 s⁻¹; in test [11], 0.00064 s⁻¹; in test [12], 0.000382 s⁻¹; in test [13], 0.000391 s⁻¹; in test [23], 7.21e-05 s⁻¹. Also, the koff turned out to be 7.21e-05 s⁻¹ in test [25] and 0.014 s⁻¹ in [26]. Further, the kon in [3] is 176000 M⁻¹ s⁻¹; in test [4], 25000 M⁻¹ s⁻¹; in test [5], 38800 M⁻¹ s⁻¹; in test [6], 23500 M⁻¹ s⁻¹; in test [7], 49100 M⁻¹ s⁻¹; in test [8] it was 36500 M⁻¹ s⁻¹. The association rate constant (kon) in [9] stood at 31000 M⁻¹ s⁻¹; in [10], 8980 M⁻¹ s⁻¹; in [11] it was 15000 M⁻¹ s⁻¹; in test [12], 51000 M⁻¹ s⁻¹; in test [13], 47000 M⁻¹ s⁻¹; in test [23], 12100 M⁻¹ s⁻¹. Further, the results for the on-rate constant (kon) in [25] and in test [26] were 12100 M⁻¹ s⁻¹ and 6020 M⁻¹ s⁻¹, respectively. The fold lower binding than wild-type in test [4] is 10 fold; in [6] it was 10 fold; in [9], 2.5 fold; in test [10], 100 fold; in [11], 10 fold. For the same molecule, the fold decrease in binding affinity against wild-type in test [14] came to 7 fold. Moreover, the x-fold reduction in binding compared to wild type in [18] was found to be 9.2 fold; in test [19], 2.6 fold; in test [20], 106 fold; in test [21] it was 7.2 fold.

Turning to “pre-formed UL141-TRAIL-R2 protein complex (from UniProt O14763 58-184)”, the Kd in test [27] is 2.19 nM; in test [28], 2 nM. The off-rate (koff) in [29] came out at 0.000333 s⁻¹. In [29], this molecule yielded a kon of 152000 M⁻¹ s⁻¹.

B1: UL141-Fc (UL141 ectodomain fused to the Fc region of human IgG1) (Fc fusion)
chain: DIAEKMWAENYETTSPAPVLVAEGEQVTIPCTVMTHSWPMVSIRARFCRSHDGSDELILDAVKGHRLMNGLQYRLPYATWNFSQLHLGQIFSLTFNVSTDTAGMYECVLRNYSHGLIMQRFVILTQLETLSRPDEPCCTPALGRYSLGDQIWSPTPWRLRNHDCGMYRGFQRNYFYIGRADAEDCWKPACPDEEPDRCWTVIQRYRLPGDCYRSQPHPPKFLPVTPAPPADIDTGMS
B1: in test [30], the koff is 0.00564 s⁻¹. The molecule also returned a kon in [30] of 264000 M⁻¹ s⁻¹. Moreover, the dissociation constant Kd was 21.4 nM in test [31], 19.8 nM in [32] and 20 nM in test [34]. The binding result in [33] was “no binding”.
